How the values were obtained:
[1] = biological target: T1, KLK4 (human, UniProt Q9Y5K2); assay: fluorogenic peptide substrate cleavage, 1 µM inhibitor
T1 construct: commercial enzyme (R&D Systems, 1719-SE); 1 µg/mL in the assay; substrate Boc-Val-Pro-Arg-AMC 100 µM; also called Human KLK4; hKLK4
Experimental: FIG. 3F includes graphs to evaluate the cross-reactivity of each inhibitory peptide with proteases, using the degradation of a peptide substrate as an index. For evaluating the Human KLK1 inhibitory activity, hKLK1 (R&D Systems, Inc., 2337-SE) with a final concentration of 0.1 μg/mL and a substrate peptide Pro-Phe-Arg-MCA (PEPTIDE […], INC., 3096-v) with a final concentration of 100 μM were used. For evaluating the Human KLK2 inhibitory activity, hKLK2 (R&D Systems, Inc., 4104-SE) with a final concentration of 2 μg/mL and a substrate peptide Pro-Phe-Arg-MCA (PEPTIDE […], INC., 3096-v) with a final concentration of 100 μM were used. For evaluating the Human KLK4 inhibitory activity, hKLK4 (R&D Systems, Inc., 1719-SE) with a final concentration of 1 μg/mL and a substrate peptide Boc-Val-Pro-Arg-AMC (R&D Systems, Inc., ES011) with a final concentration of 100 μM were used.
(§1) The specificities for other proteases were evaluated using the degradation of a substrate peptide as an index. As in the method described in (3-1), 25 μL each of a protease and a sample diluted with an assay buffer were mixed (to a final concentration of sample of 1 μM), followed by a reaction at 37° C. for 20 minutes. Thereafter, 50 μL of a substrate diluted with an assay buffer was added thereto, and the fluorescence signal was measured using Enspire (PerkinElmer). An assay buffer (50 mM Tris, 150 mM NaCl, pH 8.0) was used for the evaluation of the protease activity, and a PROTEOSAVE® SS96F black plate (Sumitomo Bakelite Co., Ltd.) was used for the reaction and the measurement. The combinations of the protease and the substrate used for the evaluation of the specificity were as follows.

[2] = biological target: mouse KLK7 (mouse, UniProt Q91VE3 26-249); assay: cell-based or functional assay
Sequence of mouse KLK7 (Q91VE3 26-249): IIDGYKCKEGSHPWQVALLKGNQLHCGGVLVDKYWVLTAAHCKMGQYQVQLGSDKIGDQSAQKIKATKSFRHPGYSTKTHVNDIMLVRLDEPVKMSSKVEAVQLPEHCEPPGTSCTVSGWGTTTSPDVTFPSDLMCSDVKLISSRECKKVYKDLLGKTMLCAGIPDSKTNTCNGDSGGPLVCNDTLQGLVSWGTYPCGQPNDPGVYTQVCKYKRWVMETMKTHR

[3] = biological target: T2, mouse KLK14 (mouse, UniProt Q8CGR5 24-250); assay: cell-based or functional assay
T2 sequence: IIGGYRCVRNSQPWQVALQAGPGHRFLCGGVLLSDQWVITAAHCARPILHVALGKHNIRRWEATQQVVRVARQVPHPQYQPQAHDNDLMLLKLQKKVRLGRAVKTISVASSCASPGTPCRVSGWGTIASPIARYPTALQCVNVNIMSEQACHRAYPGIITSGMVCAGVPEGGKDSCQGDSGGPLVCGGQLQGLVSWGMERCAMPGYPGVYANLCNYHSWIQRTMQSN

[4] = biological target: T3, mouse KLK5 (mouse); assay: cell-based or functional assay
T3 chain: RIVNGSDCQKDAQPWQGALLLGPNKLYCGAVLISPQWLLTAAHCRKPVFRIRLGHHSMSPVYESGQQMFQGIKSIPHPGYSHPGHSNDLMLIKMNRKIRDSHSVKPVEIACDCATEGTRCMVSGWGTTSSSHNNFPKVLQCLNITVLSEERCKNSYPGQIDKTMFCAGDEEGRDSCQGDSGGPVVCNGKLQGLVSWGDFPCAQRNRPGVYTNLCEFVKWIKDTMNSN

[5] = biological target: T4, KLK12 (human, UniProt Q9UKR0); assay: fluorogenic peptide substrate cleavage, 1 µM inhibitor
T4 construct: commercial enzyme (R&D Systems, 3095-SE); 0.1 µg/mL in the assay; substrate Boc-Val-Pro-Arg-AMC 100 µM; also called Human KLK12; hKLK12
T4 sequence (protease, looked up): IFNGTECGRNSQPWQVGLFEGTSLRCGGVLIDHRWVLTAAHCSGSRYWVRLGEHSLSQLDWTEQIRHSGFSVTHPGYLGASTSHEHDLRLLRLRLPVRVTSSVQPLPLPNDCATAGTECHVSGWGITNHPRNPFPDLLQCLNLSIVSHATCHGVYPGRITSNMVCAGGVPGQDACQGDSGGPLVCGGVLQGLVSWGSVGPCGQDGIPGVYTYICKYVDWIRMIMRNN
Experimental: FIG. 3G includes graphs to evaluate the cross-reactivity of each inhibitory peptide with proteases, using the degradation of a peptide substrate as an index. For evaluating the Human KLK7 inhibitory activity, hKLK7 with a final concentration of 1 μg/mL and a substrate peptide Mca-Arg-Pro-Lys-Pro-Val-Glu-Nval-Trp-Arg-Lys (Dnp)-NH₂ (R&D Systems, Inc., ES002) with a final concentration of 20 μM were used. For evaluating the Human KLK8 inhibitory activity, hKLK8 (UniProt: 060259, prepared by the inventors) with a final concentration of 5 nM and a substrate peptide Boc-Val-Pro-Arg-AMC (R&D Systems, Inc., ES011) with a final concentration of 100 μM were used. For evaluating the Human KLK12 inhibitory activity, hKLK12 (R&D Systems, Inc., 3095-SE) with a final concentration of 0.1 μg/mL and a substrate peptide Boc-Val-Pro-Arg-AMC (R&D Systems, Inc., ES011) with a final concentration of 100 μM were used.
as §1

[6] = biological target: T5, human KLK5 (human, UniProt Q9Y337 67-293); assay: cell-based or functional assay
T5 sequence: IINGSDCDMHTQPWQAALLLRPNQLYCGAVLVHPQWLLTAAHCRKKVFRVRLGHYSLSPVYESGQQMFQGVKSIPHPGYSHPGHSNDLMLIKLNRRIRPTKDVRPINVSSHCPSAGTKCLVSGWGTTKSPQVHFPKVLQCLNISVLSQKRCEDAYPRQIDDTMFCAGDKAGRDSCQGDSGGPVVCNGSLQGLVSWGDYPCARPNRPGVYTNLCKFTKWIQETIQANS

[7] = biological target: T6, human KLK14 (human, UniProt Q9P0G3 25-251); assay: cell-based or functional assay
T6 sequence: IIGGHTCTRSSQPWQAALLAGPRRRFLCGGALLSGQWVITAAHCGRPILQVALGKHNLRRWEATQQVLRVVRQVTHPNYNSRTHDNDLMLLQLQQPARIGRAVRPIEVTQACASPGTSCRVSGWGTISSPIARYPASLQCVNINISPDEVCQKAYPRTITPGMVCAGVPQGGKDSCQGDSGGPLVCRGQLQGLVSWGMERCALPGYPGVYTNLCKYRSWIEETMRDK

[8] = biological target: T5, human KLK5; assay: SPR, BIAcore T200; biotinylated KLK5 captured on chip, peptide as analyte; single cycle kinetics, 1:1 model
Experimental: In order to measure the binding affinity of the KLK5 inhibitory peptides, surface plasmon resonance analysis was conducted using BIAcore T 200 (GE healthcare). A complementary strand of DNA of a streptavidin conjugate was captured by hybridization on Sensor Chip CAP (GE healthcare) on which single-stranded DNA immobilized. Next, KLK5 biotinylated using EZ-Link NHS-PEG4-Biotin (Thermo Fisher Scientific) was captured at a flow rate of 10 μL/min to immobilize about 10 RU. Thereafter, the KLK5 inhibitory peptide, serially diluted 2-fold with HBS-EP (0.625 to 10 nM), was added thereto as an analyte at a flow rate of 30 μL/min. In the BIAcore T 200 Evaluation software (version 2.0), kon and koff were calculated by analysis using Single cycle kinetics in a simple one-to-one Langmuir binding model. The dissociation constant KD was calculated as a ratio of koff/kₒₙ. Further, multiple KLK5 inhibitory peptides were measured by regenerating Sensor Chip CAP using a Regeneration buffer attached to a Biotin CAPture Kit (GE healthcare) and repeatedly capturing biotinylated KLK5.

[9] = biological target: human KLK7 (human, UniProt P49862 30-253); assay: cell-based or functional assay
Sequence of human KLK7 (P49862 30-253): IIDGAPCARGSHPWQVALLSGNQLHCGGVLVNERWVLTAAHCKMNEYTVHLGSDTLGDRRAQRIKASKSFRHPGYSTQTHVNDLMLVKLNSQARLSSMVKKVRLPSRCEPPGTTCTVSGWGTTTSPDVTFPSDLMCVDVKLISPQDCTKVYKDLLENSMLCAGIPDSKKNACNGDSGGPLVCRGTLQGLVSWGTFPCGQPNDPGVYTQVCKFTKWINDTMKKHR

[10] = biological target: bChymotrypsin; assay: fluorogenic peptide substrate cleavage, 1 µM inhibitor
Experimental: FIG. 3A includes graphs to evaluate the cross-reactivity of each inhibitory peptide with proteases, using the degradation of a peptide substrate as an index. For evaluating the Bovine trypsin inhibitory activity, trypsin (Pierce, 20233) with a final concentration of 5 nM and a substrate peptide Boc-Val-Pro-Arg-AMC (R&D Systems, Inc., ES011) with a final concentration of 100 μM were used. For evaluating the Human trypsin inhibitory activity, trypsin (Sigma-Aldrich Co. LLC, T6424) with a final concentration of 1 nM and a substrate peptide Boc-Val-Pro-Arg-AMC (R&D Systems, Inc., ES011) with a final concentration of 100 μM were used. For evaluating the Bovine α-chymotrypsin inhibitory activity, chymotrypsin (Worthington Biochemical Corporation, LS001434) with a final concentration of 10 nM and a substrate peptide Suc-Leu-Leu-Val-Tyr-MCA (PEPTIDE […], INC., 3120-v) with a final concentration of 100 μM were used.
as §1

T1 sequence (Q9Y5K2 31-254 limits assumed): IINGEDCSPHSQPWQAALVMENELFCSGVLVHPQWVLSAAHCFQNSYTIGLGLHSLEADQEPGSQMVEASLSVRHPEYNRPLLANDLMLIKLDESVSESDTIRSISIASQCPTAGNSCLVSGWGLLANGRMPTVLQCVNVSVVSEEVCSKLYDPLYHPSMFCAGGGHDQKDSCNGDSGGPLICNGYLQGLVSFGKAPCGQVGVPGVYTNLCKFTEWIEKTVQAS

B1: KLK5 inhibitory peptide K50098 (peptide)
chain: GPQFGLFSKYRTPNCTSQTLGSCSREYDPVCGSDMSTYANECTLCMKIREGGHNIKIIRNGPCGG
notes: SPINK2 mutant peptide made in E. coli
With B1 the binding result [1] was “binds”, the “IC50(nM) for mKLK7” value [2] was over 1000 nM and the “IC50(nM) for mKLK14” value [3] was 547 nM. For the same binder, the “IC50(nM) for mKLK5” value [4] was 14 nM, the binding result [5] was “binds” and the “IC50(nM) for hKLK5” value [6] was 8.3 nM. The “IC50(nM) for hKLK14” value [7] was 268 nM, the Kd [8] was 0.018 nM and the koff [8] was 1.8e-05 s⁻¹. It also gave a kon [8] of 1e+06 M⁻¹ s⁻¹.

B2: KLK5 inhibitory peptide K50032 (peptide)
chain: GPQFGLFSKYRTPNCLNWTDHQCERDYDPVCGSDMSTYANECTLCMKIREGGHNIKIIRNGPCGG
notes: as for B1
For B2, the “IC50(nM) for mKLK7” value [2] was over 1000 nM, the “IC50(nM) for mKLK14” value [3] was over 1000 nM and the “IC50(nM) for mKLK5” value [4] was 127 nM. For the same binder, the binding result [5] was “binds”, the “IC50(nM) for hKLK5” value [6] was 7.1 nM and the Kd [8] was 0.13 nM. The koff [8] was 0.00027 s⁻¹ and the kon [8] was 2e+06 M⁻¹ s⁻¹.

B3: KLK5 inhibitory peptide K50016 (peptide)
chain: GPQFGLFSKYRTPNCSQWQYSSCDRVYDPVCGSDMSTYANECTLCMKIREGGHNIKIIRNGPCGG
notes: as for B1
In the case of B3, the binding result [1] is reported as “binds”, the “IC50(nM) for mKLK7” value [2] is reported as over 1000 nM and the “IC50(nM) for mKLK14” value [3] is reported as over 1000 nM. For the same binder, the “IC50(nM) for mKLK5” value [4] was 15 nM, the “IC50(nM) for hKLK5” value [6] was 6.9 nM and the Kd [8] was 0.042 nM. The koff [8] was 0.00029 s⁻¹ and the kon [8] was 7e+06 M⁻¹ s⁻¹.

B4: KLK5 inhibitory peptide K51090 (peptide)
chain: GPQFGLFSKYRTPNCDEIGKYGCGRSYDPVCGSDMSTYANECTLCMKIREGGHNIKIIRNGPCGG
notes: as for B1
In the case of B4, the binding result [1] is reported as “binds”, the “IC50(nM) for mKLK7” value [2] is reported as 658 nM and the “IC50(nM) for mKLK14” value [3] is reported as over 1000 nM. The “IC50(nM) for mKLK5” value [4] was 2 nM, the “IC50(nM) for hKLK5” value [6] was 4.5 nM and the “IC50(nM) for hKLK7” value [9] was over 1000 nM. For the same binder, the “IC50(nM) for hKLK14” value [7] was over 1000 nM, the Kd [8] was 0.027 nM and the koff [8] was 5.7e-05 s⁻¹. For the same binder, the kon [8] was 2.1e+06 M⁻¹ s⁻¹.

B5: KLK5 inhibitory peptide K51072 (peptide)
chain: GPQFGLFSKYRTPNCQEDMTEYCARDFDPVCGSDMSTYANECTLCMKIREGGHNIKIIRNGPCGG
notes: as for B1
B5 was tested, and the binding result [1] was “binds”, the “IC50(nM) for mKLK7” value [2] was 512 nM and the “IC50(nM) for mKLK14” value [3] was over 1000 nM. The “IC50(nM) for mKLK5” value [4] was 2 nM, the binding result [5] was “binds” and the “IC50(nM) for hKLK5” value [6] was 7 nM. The “IC50(nM) for hKLK14” value [7] was 434 nM, the Kd [8] was 0.026 nM and the koff [8] was 2.2e-05 s⁻¹. It also gave a kon [8] of 840000 M⁻¹ s⁻¹.

B6: KLK5/KLK7 inhibitory peptide K51028 (peptide)
chain: GPQFGLFSKYRTPNCYQYRSKGCTHEYDPVCGSDMSTYANECTLCMKIREGGHNIKIIRNGPCGG
notes: as for B1
With B6 the “IC50(nM) for mKLK7” value [2] was 77 nM, the “IC50(nM) for mKLK14” value [3] was over 1000 nM and the “IC50(nM) for mKLK5” value [4] was under 0.5 nM. For the same binder, the “IC50(nM) for hKLK5” value [6] was 6.1 nM, the “IC50(nM) for hKLK7” value [9] was 249 nM and the Kd [8] was 0.014 nM. It also gave a koff [8] of 2e-05 s⁻¹ and a kon [8] of 1.5e+06 M⁻¹ s⁻¹.

B7: KLK5 inhibitory peptide K50055 (peptide)
chain: GPQFGLFSKYRTPNCANTMKQDCTREYDPVCGSDMSTYANECTLCMKIREGGHNIKIIRNGPCGG
notes: as for B1
For B7, the binding result [1] was “binds”, the “IC50(nM) for mKLK7” value [2] was over 1000 nM and the “IC50(nM) for mKLK14” value [3] was over 1000 nM. For the same binder, the “IC50(nM) for mKLK5” value [4] was under 0.5 nM, the binding result [5] was “binds” and the “IC50(nM) for hKLK5” value [6] was 6.7 nM. For the same binder, the “IC50(nM) for hKLK14” value [7] was over 1000 nM, the Kd [8] was 0.019 nM and the koff [8] was 1.8e-05 s⁻¹. The kon [8] was 980000 M⁻¹ s⁻¹.

B8: KLK5/KLK7 inhibitory peptide K51005 (peptide)
chain: GPQFGLFSKYRTPNCMQHARQGCHYDYDPVCGSDMSTYANECTLCMKIREGGHNIKIIRNGPCGG
notes: as for B1
In the case of B8, the binding result [1] is reported as “binds”, the “IC50(nM) for mKLK7” value [2] is reported as 23 nM and the “IC50(nM) for mKLK14” value [3] is reported as 214 nM. For the same binder, the “IC50(nM) for mKLK5” value [4] was 48 nM, the binding result [10] was “binds” and the “IC50(nM) for hKLK5” value [6] was 5.8 nM. The “IC50(nM) for hKLK7” value [9] was 17 nM, the Kd [8] was 0.34 nM and the koff [8] was 0.0012 s⁻¹. The kon [8] was 3.5e+06 M⁻¹ s⁻¹.

Source: US20210032313A1 (Daiichi Sankyo, published 2021)
